Data on six molecules can be found in US10487348B2, “3-alpha-hydroxysteroid dehydrogenase mutants and process for the preparation of ursodeoxycholic acid” (Pharmazell GmbH, priority 2014, dated 2019).

Substrate in data set [1]: C[C@H](CCC(=O)O)[C@H]1CC[C@H]2[C@@H]3C(=O)C[C@@H]4CC(=O)CC[C@]4(C)[C@H]3CC(=O)[C@]12C
The data set can be described thus: Kinetics of 3α-HSDH [T188G], N-terminal His tag. In kind it is biochemical, Comamonas testosteroni. The conditions noted are these: other: Table 14, substrate DHCA, apparent values, pH 8.0. The method, then:
(§1) The activity of the 3α-HSDH and of the mutants was determined using a photometric assay, where the decrease in absorbance was measured at 340 nm over a period of 30 seconds.
(§2) The targeted exchange of amino acid radicals was performed analogously to Example 2B.
Following cultivation and expression, the cells were harvested, and the specific activities of the cell-free crude extracts were determined at substrate concentrations of 10 mM DHCA. The enzyme variants where the activity measurements with crude extract enzyme were most promising were purified by means of Ni-NTA chromatography, and their kinetic constants were determined by measurements with different DHCA concentrations of between 10 μM and 20 mM. In addition, an expression check by means of SDS PAGE was carried out for all mutants.

In data set [2] the target is T1, 3α-HSDH; substrate DHCA (Comamonas testosteroni, UniProt P80702).
T1 sequence (P80702 whole entry, looked up): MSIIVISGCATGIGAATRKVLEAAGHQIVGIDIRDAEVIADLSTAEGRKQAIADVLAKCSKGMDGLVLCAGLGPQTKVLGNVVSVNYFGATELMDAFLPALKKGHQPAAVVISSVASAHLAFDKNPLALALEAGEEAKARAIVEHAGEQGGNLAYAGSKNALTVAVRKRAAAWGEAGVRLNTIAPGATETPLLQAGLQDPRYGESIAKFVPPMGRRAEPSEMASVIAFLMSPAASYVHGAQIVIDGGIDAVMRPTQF
Format: biochemical.

Substrate in data set [3]: NC(=O)C1=CN([C@@H]2O[C@H](COP(=O)(O)OP(=O)(O)OC[C@H]3O[C@@H](n4cnc5c(N)ncnc54)[C@H](O)[C@@H]3O)[C@@H](O)[C@H]2O)C=CC1
The data set can be described thus: Michaelis-Menten kinetics of wild-type 3α-HSDH with N-terminal His tag. Format: biochemical, Comamonas testosteroni. The conditions noted are these: other: Table 15, substrate NADH, apparent values, pH 8.0.
Excerpt: The His-tag allows for very simple purification of the HSDH protein since this sequence is bound with high specificity by specific chromatographic material (NTA (Ni-nitrilotriacetate)-modified support material, loaded with divalent nickel ions, for example “His Pur Ni-NTA” (Nimagen B. V., Nijmegen, The Netherlands)). To this end, the cell-free crude extract is applied to a dropping column comprising this material, which dropping column has previously been equilibrated with the disruption buffer (3 to 5 column volumes). Weakly binding protein was removed by washing with 3 to 5 column volumes of wash buffer (20 mM imidazole, 50 mM sodium phosphate, 300 mM NaCl, pH 8). The His-tag-3α-HSDH protein was eluted with imidazole-comprising elution buffer (250 mM imidazole, 50 mM sodium phosphate, 300 mM NaCl, pH 8). The process was carried out at room temperature. The imidazole which was present was to be removed by buffer exchange.
as §1, §2
Following cultivation and expression, the cells were harvested, and the specific activities of the cell-free crude extracts were determined at substrate concentrations of 10 mM DHCA. The enzyme variants where the activity measurements with crude extract enzyme were most promising were purified by means of Ni-NTA chromatography, […] In addition, an expression check by means of SDS PAGE was carried out for all mutants.

The target of data set [4] is 3α-HSDH; substrate DHCA (Comamonas testosteroni, UniProt P80702, R34N). In kind it is biochemical. The conditions noted are these: versus wild type.
The test system of data set [5] is 3α-HSDH; substrate DHCA. In kind it is biochemical, Comamonas testosteroni.
In data set [6] the target is 3α-HSDH; substrate DHCA (Comamonas testosteroni, UniProt P80702, L68A/R34N). In kind it is biochemical. The conditions noted are these: purified enzyme.
For data set [7], the system named is 3α-HSDH; substrate DHCA. Format: biochemical, Comamonas testosteroni. The conditions noted are these: substrate DHCA; FIGS. 8A-8B; listed as dual mutant.
The mark [8] stands for this setting: Table 4, variants modified at position 34.
The mark [9] stands for this setting: Table 9, crude extract, dual mutant position 34 and 68.
[10] abbreviates: Table 7, variants modified at position 68.

“Also recorded” adds a separate entry of the source. Where two headings read alike, the source gives them in different places.

B1: Comamonas testosteroni 3α-HSDH mutant [T188G], N-terminal hexahistidine tag (Comamonas testosteroni; T188G) (protein)
chain: MSIIVISGCATGIGAATRKVLEAAGHQIVGIDIRDAEVIADLSTAEGRKQAIADVLAKCSKGMDGLVLCAGLGPQTKVLGNVVSVNYFGATELMDAFLPALKKGHQPAAVVISSVASAHLAFDKNPLALALEAGEEAKARAIVEHAGEQGGNLAYAGSKNALTVAVRKRAAAWGEAGVRLNTIAPGAGETPLLQAGLQDPRYGESIAKFVPPMGRRAEPSEMASVIAFLMSPAASYVHGAQIVIDGGIDAVMRPTQF
B1: in data set [1], the Km came to 1458 ± 182.6 µM, the Vmax is reported as 20.3 ± 0.8 U/mg and the kcat came to 9.6 s⁻¹.

B2: Crude extract (without His tag): non-tagged wild-type 3α-HSDH of Comamonas testosteroni (SEQ ID NO: 4) (protein, listed as Comamonas testosteroni)
chain: MSIIVISGCATGIGAATRKVLEAAGHQIVGIDIRDAEVIADLSTAEGRKQAIADVLAKCSKGMDGLVLCAGLGPQTKVLGNVVSVNYFGATELMDAFLPALKKGHQPAAVVISSVASAHLAFDKNPLALALEAGEEAKARAIVEHAGEQGGNLAYAGSKNALTVAVRKRAAAWGEAGVRLNTIAPGATETPLLQAGLQDPRYGESIAKFVPPMGRRAEPSEMASVIAFLMSPAASYVHGAQIVIDGGIDAVMRPTQF
Consider B2, for which the “DHCA concentration at which maximum activity is reached” value in the data set with 3α-HSDH; substrate DHCA [2] is reported as “approximately 1 mM”.

B3: Comamonas testosteroni 3α-HSDH, wild type, N-terminal hexahistidine tag (Comamonas testosteroni) (protein)
chain: MSIIVISGCATGIGAATRKVLEAAGHQIVGIDIRDAEVIADLSTAEGRKQAIADVLAKCSKGMDGLVLCAGLGPQTKVLGNVVSVNYFGATELMDAFLPALKKGHQPAAVVISSVASAHLAFDKNPLALALEAGEEAKARAIVEHAGEQGGNLAYAGSKNALTVAVRKRAAAWGEAGVRLNTIAPGATETPLLQAGLQDPRYGESIAKFVPPMGRRAEPSEMASVIAFLMSPAASYVHGAQIVIDGGIDAVMRPTQF
As for B3, in data set [3], the Km was 59.2 ± 6.9 µM, the Vmax amounted to 109 µmol/min/mg, the kcat was 47.1 s⁻¹ and the kcat/Km turned out to be 796000 M⁻¹ s⁻¹.

B4: 3α-HSDH [R34N] (protein)
chain: MSIIVISGCATGIGAATRKVLEAAGHQIVGIDINDAEVIADLSTAEGRKQAIADVLAKCSKGMDGLVLCAGLGPQTKVLGNVVSVNYFGATELMDAFLPALKKGHQPAAVVISSVASAHLAFDKNPLALALEAGEEAKARAIVEHAGEQGGNLAYAGSKNALTVAVRKRAAAWGEAGVRLNTIAPGATETPLLQAGLQDPRYGESIAKFVPPMGRRAEPSEMASVIAFLMSPAASYVHGAQIVIDGGIDAVMRPTQFLEHHHHHH
Turning to B4, the “activity improved (best mutant at position 34)” value with 3α-HSDH; substrate DHCA [4] is reported as “approx. 3 fold”. In the data set on 3α-HSDH; substrate DHCA [5] (setting [8]), this molecule gave a Specific activity of 3.0 U/mg and a Volumetric activity of 58.0 U/ml.

B5: 3α-HSDH [R34N/L68A] (protein)
chain: MSIIVISGCATGIGAATRKVLEAAGHQIVGIDINDAEVIADLSTAEGRKQAIADVLAKCSKGMDGLVACAGLGPQTKVLGNVVSVNYFGATELMDAFLPALKKGHQPAAVVISSVASAHLAFDKNPLALALEAGEEAKARAIVEHAGEQGGNLAYAGSKNALTVAVRKRAAAWGEAGVRLNTIAPGATETPLLQAGLQDPRYGESIAKFVPPMGRRAEPSEMASVIAFLMSPAASYVHGAQIVIDGGIDAVMRPTQFLEHHHHHH
In the data set with 3α-HSDH; substrate DHCA [5] (setting [9]), B5 yielded a Specific activity of 4.5 U/mg and a Volumetric activity of 139.7 U/ml. Also, the “increase of the maximum activity over the wild type” value with 3α-HSDH; substrate DHCA [6] is “approx. 25%”. Further, the “activity compared with the wild type with His tag (courses of Michaelis-Menten kinetics)” value with 3α-HSDH; substrate DHCA [7] is given as “not being quite as active as the wild type at low substrate concentrations; also recorded: markedly higher activities than the wild-type enzyme at higher substrate concentrations”.

B6: 3α-HSDH (WT): Comamonas testosteroni 3α-HSDH wild type, C-terminally extended by His-Tag LEHHHHHH (SEQ ID NO: 5) (protein)
chain: MSIIVISGCATGIGAATRKVLEAAGHQIVGIDIRDAEVIADLSTAEGRKQAIADVLAKCSKGMDGLVLCAGLGPQTKVLGNVVSVNYFGATELMDAFLPALKKGHQPAAVVISSVASAHLAFDKNPLALALEAGEEAKARAIVEHAGEQGGNLAYAGSKNALTVAVRKRAAAWGEAGVRLNTIAPGATETPLLQAGLQDPRYGESIAKFVPPMGRRAEPSEMASVIAFLMSPAASYVHGAQIVIDGGIDAVMRPTQFLEHHHHHH
modifications: C-terminal His-tag LEHHHHHH
With B6, the Specific activity in the data set with 3α-HSDH; substrate DHCA [5] (setting [8]), with 3α-HSDH; substrate DHCA [5] (setting [10]) and in the data set with 3α-HSDH; substrate DHCA [5] (setting [9]) was 2.1 U/mg in each case. Also, the Volumetric activity in the data set on 3α-HSDH; substrate DHCA [5] (setting [8]) was determined as 38.0 U/ml; with 3α-HSDH; substrate DHCA [5] (setting [10]), 44.9 U/ml; with 3α-HSDH; substrate DHCA [5] (setting [9]) it was 44.9 U/ml. Moreover, the substrate excess inhibition entry with 3α-HSDH; substrate DHCA [2] was “no longer demonstrates the pronounced substrate excess inhibition”.
